Source: patent US20070041977A1 (AFFIMED THERAPEUTICS, published 2007)
No end group written: not given here.

Columns and labels:
[1] = target: T1, 37 kDa/67 kDa LRP/LR on murine neuroblastoma cells (N2a) (murine, UniProt P14206 2-295); assay: FACS on N2a cells
T1 construct: whole, on cells; also called LRP/LR on the surface of N2a cells

[2] = target: T2, LRP peptide EKAVTKEEFQGEWTA (also: synthesized on a cellulose membrane); assay: peptide array on cellulose membrane, scFv 1:5000
T2 peptide: EKAVTKEEFQGEWTA
Procedure: (§1) The N-terminus of each peptide was displaced by 3 amino acids in relation to the previous peptide, so that each peptide overlapped with the previous peptide by 12 amino acids. The synthesis of the peptides was carried out on a cellulose membrane.

[3] = target: T3, LRP peptide VTKEEFQGEWTAPAP (also: synthesized on a cellulose membrane); assay: peptide array on cellulose membrane, scFv 1:5000
T3 peptide: VTKEEFQGEWTAPAP
Procedure: as §1

[4] = target: T4, recombinant human LRP::FLAG expressed in BHK cells transfected with SFV1-huLRP-FLAG (human, UniProt P08865 2-295); assay: Western Blot of total extracts of transfected BHK cells
T4 construct: whole, on cells; also called human 37 kDa LRP::FLAG; rec; LRP::FLAG
Procedure: (§2) BHK cells were either not transfected (n.t.) or transfected in the manner known to the person skilled in the art in the specialty with the rec. Semliki forest virus (SFV) RNAs SFV1-huLRP-FLAG or SFV1-mol.RP::FLAG. The method of preparation of rec. SFV RNA, the transfection and the analysis by Western Blotting or immunofluorescence (FIG. 12) or FACS (FIG. 13) have already been described (Gauczynski et al., 2002; Gauczynski et al., 2001b). 24 h post-transfection, total cell extracts were analyzed by Western Blotting. […] The control used was the anti-LRP antibody mLRP43512 (A), and an anti-mouse IgG-HRP-coupled secondary antibody. As a loading control, the β-actin level was determined. To this end, an anti-β-actin antibody (Chemicon) was employed. Detection was carried out by chemiluminescence (Western Lightning, NEN). […] LRP::FLAG.

[5] = target: T5, recombinant murine LRP::FLAG expressed in BHK cells transfected with SFV1-moLRP::FLAG (murine, UniProt P14206 2-295); assay: as above
T5 construct: whole, on cells; also called muLRP-FLAG; murine 37 kDa LRP::FLAG
Procedure: as §2

[6] = target: T6, LRP peptide PSVPIQQFPTEDWSA (synthesized on a cellulose membrane); assay: peptide array on cellulose membrane, scFv 1:5000
T6 peptide: PSVPIQQFPTEDWSA
Procedure: as §1

[7] = target: T7, LRP peptide TEDWSAAPTAQATEW (synthesized on a cellulose membrane); assay: peptide array on cellulose membrane, scFv 1:5000
T7 peptide: TEDWSAAPTAQATEW
Procedure: as §1

Measured: binding result

B1: single chain antibody S18 selected from the synthetic scFv bank (scFv)
scFv: QVQLQESGGGLVQPGGSLRLSCAASGFMFSRYAMSWVRQAPGKGPEWVSGISGSGGSTYYADSVKGRFTVSRDNSKNTLYLQMNSLRAEDTAVYYCARHPGFWHFDYWGQGTLVTVSSGSASAPKLEEGEFSEARVSELTQDPAVSVALGQTVRITCQGDSLRNFYASWYQQKPGQAPTLVIYGLSKRPSGIPDRFSASSSGNTASLTITGAQAEDEADYYCNSRDRSGNHVNVLFGGGTKLTVLRQPKAAPSVTLFPPSSAAAGSHHHHHH
notes: VH and VL joined by a peptide linker (YOL), with a C-terminal histidine tag; also called scFv S18; scFvS18
not listed: [6] | [7]
binds: all other assays above

B2: single chain antibody N3 selected from the naive scFv bank (scFv)
scFv: EVQLVESGGGVVQPGRSLRLSCAASGFTFSSYGMHWVRQAPGKGLEWVAVIWYDGSNKYYADSVKGRFTISRDNSKNTLYLQMNSLRAEDTAVYYCATIPRSSFYYGMDVWGQGTTVTVSSGSASAPTLKLEEGEFSEARVQPVLTQPPSASGTPGQRVTISCSGSRSNIGSNTVNWYQQLPGTAPKLLIYGNNQRPSGVPERFSGSKSGTSASLAISGLQSEDEADYYCAAWDDSLTGVLFGGGTKLTVLGQPKAAPSVTLFPPSSAAAGSHHHHHH
notes: VH and VL joined by a peptide linker (YOL), with a C-terminal histidine tag; also called scFv N3; scFvN3
not listed: [2] | [3]
binds: all other assays above
